# Molecular target: Xyloglucanase TpXEG12a from Talaromyces pinophilus (Talaromyces pinophilus)
# Assay: SEC; gel filtration on Superdex 75 Increase, 20 mM Tris-HCl, 150 mM NaCl, pH 7.5; calibrated with molecular mass standards
substance,measurement,value
Xyloglucanase TpXEG12a from Talaromyces pinophilus (enzyme),stoichiometry N,2

# Reference: publication PMC12786156
